Assay results from IntAct's records for PubMed 21423167.

B1: NF-kappa-B inhibitor alpha (Homo sapiens), P25963 (parent)
chain: MFQAAERPQEWAMEGPRDGLKKERLLDDRHDSGLDSMKDEEYEQMVKELQEIRLEPQEVPRGSEPWKQQLTEDGDSFLHLAIIHEEKALTMEVIRQVKGDLAFLNFQNNLQQTPLHLAVITNQPEIAEALLGAGCDPELRDFRGNTPLHLACEQGCLASVGVLTQSCTTPHLHSILKATNYNGHTCLHLASIHGYLGIVELLVSLGADVNAQEPCNGRTALHLAVDLQNPDLVSLLLKCGADVNRVTYQGYSPYQLTWGRPSTRIQQQLGQLTLENLQMLPESEDEESYDTESEFTEFTEDELPYDDCVFGGQRLTL
partner: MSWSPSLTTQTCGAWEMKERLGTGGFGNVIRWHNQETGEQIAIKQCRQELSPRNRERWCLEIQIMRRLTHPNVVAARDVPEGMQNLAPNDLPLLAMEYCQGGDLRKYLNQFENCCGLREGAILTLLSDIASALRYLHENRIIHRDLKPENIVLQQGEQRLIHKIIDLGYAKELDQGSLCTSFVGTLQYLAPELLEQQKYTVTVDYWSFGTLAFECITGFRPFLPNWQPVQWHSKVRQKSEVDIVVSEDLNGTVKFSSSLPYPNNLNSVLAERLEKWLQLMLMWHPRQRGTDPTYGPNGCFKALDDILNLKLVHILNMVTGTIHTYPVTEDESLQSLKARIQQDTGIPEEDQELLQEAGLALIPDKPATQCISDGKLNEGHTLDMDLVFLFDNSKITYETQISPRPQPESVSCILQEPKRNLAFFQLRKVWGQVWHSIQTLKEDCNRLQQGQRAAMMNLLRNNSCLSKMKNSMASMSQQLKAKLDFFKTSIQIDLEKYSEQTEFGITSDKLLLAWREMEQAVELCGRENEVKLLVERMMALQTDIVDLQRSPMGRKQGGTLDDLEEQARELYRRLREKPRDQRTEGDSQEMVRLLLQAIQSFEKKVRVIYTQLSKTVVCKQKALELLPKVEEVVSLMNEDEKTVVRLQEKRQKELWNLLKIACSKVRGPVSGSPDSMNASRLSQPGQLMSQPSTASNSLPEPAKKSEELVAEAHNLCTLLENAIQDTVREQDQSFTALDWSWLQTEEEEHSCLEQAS

Variants of: B1
Details: with ikkb_human IKBKB

Variant	effect of a mutation on the interaction
MFQAAERPQEWAMEGPRDGLKKERLLDDRHDAGLDAMKDEEYEQMVKELQEIRLEPQEVPRGSEPWKQQLTEDGDSFLHLAIIHEEKALTMEVIRQVKGDLAFLNFQNNLQQTPLHLAVITNQPEIAEALLGAGCDPELRDFRGNTPLHLACEQGCLASVGVLTQSCTTPHLHSILKATNYNGHTCLHLASIHGYLGIVELLVSLGADVNAQEPCNGRTALHLAVDLQNPDLVSLLLKCGADVNRVTYQGYSPYQLTWGRPSTRIQQQLGQLTLENLQMLPESEDEESYDTESEFTEFTEDELPYDDCVFGGQRLTL [S32A;S36A]	decreasing interaction
